The labels stand for the following.
T1: PUF4 RNA-binding domain (Saccharomyces cerevisiae, UniProt P25339 537-888)
T1 sequence: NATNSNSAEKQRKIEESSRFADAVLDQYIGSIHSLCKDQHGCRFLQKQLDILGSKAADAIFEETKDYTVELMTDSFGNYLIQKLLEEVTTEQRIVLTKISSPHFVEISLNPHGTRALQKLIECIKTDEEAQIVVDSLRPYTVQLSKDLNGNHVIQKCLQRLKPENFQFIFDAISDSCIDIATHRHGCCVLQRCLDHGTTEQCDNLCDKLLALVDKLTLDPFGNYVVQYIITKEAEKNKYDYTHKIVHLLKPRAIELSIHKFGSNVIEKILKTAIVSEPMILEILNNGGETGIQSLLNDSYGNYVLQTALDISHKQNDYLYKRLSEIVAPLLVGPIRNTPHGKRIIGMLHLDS

B1: Id_ii_S4_P3E.4_K3.3_C3.2_[C-2G]_[T-1C]_H3.3_A3.1_F3.1_T3.2_[T9G]_[A10T] (ssRNA)
RNA: UUUGACAACUGAUCGUUCUUUCUGCACACUAUAGUUUCUUUCUCGAUCAGUUGUCUUU
B2: Id_ii_S4_P3E.4_K3.3_C3.2_[C-2T]_[T-1C]_H3.3_A3.1_F3.1_T3.2_[T9C]_[A10G] (ssRNA)
RNA: UUUGACAACUGAUCGUUCUUUCUUCACACUAUACGUUCUUUCUCGAUCAGUUGUCUUU
B3: Id_ii_S4_P3E.4_K3.3_C3.2_[C-2T]_[T-1A]_H3.3_A3.1_F3.1_T3.2_[T9A]_[A10T] (ssRNA)
RNA: UUUGACAACUGAUCGUUCUUUCUUAACACUAUAAUUUCUUUCUCGAUCAGUUGUCUUU
B4: Id_ii_S4_P3E.4_K3.3_C3.2_[C-2G]_[T-1C]_H3.3_A3.1_F3.1_T3.2_[T9C]_[A10C] (ssRNA)
RNA: UUUGACAACUGAUCGUUCUUUCUGCACACUAUACCUUCUUUCUCGAUCAGUUGUCUUU
B5: Id_ii_S4_P3E.4_K3.3_C3.2_[C-2G]_[T-1C]_H3.3_A3.1_F3.1_T3.2_[T9A]_[A10T] (ssRNA)
RNA: UUUGACAACUGAUCGUUCUUUCUGCACACUAUAAUUUCUUUCUCGAUCAGUUGUCUUU
B6: Ib_S1_P5E.1_K5.1_C5.1_H5.1_[G2C]_A5.1_[T5A]_F5.1_T5.1 (ssRNA)
RNA: UCUCUUUCUAAUAUUAUCUCUU
B7: Ib_S1_P5E.1_K5.1_C5.1_H5.1_[G2C]_A5.1_[T5C]_F5.1_T5.1 (ssRNA)
RNA: UCUCUUUCUACUAUUAUCUCUU
B8: Id_ii_S4_P3E.3_K3.2_C3.2_[C-2A]_H3.2_A3.1_F3.1_T3.2 (ssRNA)
RNA: UUUGACAACUGAUCGUUCUUUCUAUUAUAUAUAUAUUCUUUCUCGAUCAGUUGUCUUU
B9: Id_ii_S4_P3E.4_K3.3_C3.2_[C-2G]_H3.3_A3.1_F3.1_T3.2_[T9A]_[A10T] (ssRNA)
RNA: UUUGACAACUGAUCGUUCUUUCUGUACACUAUAAUUUCUUUCUCGAUCAGUUGUCUUU
B10: Id_ii_S4_P3E.3_K3.2_C3.2_H3.2_A3.1_F3.1_T3.2_[A10C] (ssRNA)
RNA: UUUGACAACUGAUCGUUCUUUCUCUUAUAUAUAUCUUCUUUCUCGAUCAGUUGUCUUU
B11: Id_ii_S4_P3E.3_K3.2_C3.2_[T-1C]_H3.2_A3.1_F3.1_T3.2_[A10T] (ssRNA)
RNA: UUUGACAACUGAUCGUUCUUUCUCCUAUAUAUAUUUUCUUUCUCGAUCAGUUGUCUUU
B12: Id_ii_S4_P3E.3_K3.2_C3.2_H3.2_A3.1_F3.1_T3.2_[T9C]_[A10C] (ssRNA)
RNA: UUUGACAACUGAUCGUUCUUUCUCUUAUAUAUACCUUCUUUCUCGAUCAGUUGUCUUU
B13: Id_ii_S4_P3E.3_K3.2_C3.2_[T-1C]_H3.2_A3.1_F3.1_T3.2_[T9C]_[A10C] (ssRNA)
RNA: UUUGACAACUGAUCGUUCUUUCUCCUAUAUAUACCUUCUUUCUCGAUCAGUUGUCUUU
B14: Id_ii_S4_P3E.3_K3.2_C3.2_[T-1G]_H3.2_A3.1_F3.1_T3.2_[T9A] (ssRNA)
RNA: UUUGACAACUGAUCGUUCUUUCUCGUAUAUAUAAAUUCUUUCUCGAUCAGUUGUCUUU
B15: Id_ii_S4_P3E.4_K3.3_C3.2_[C-2G]_[T-1C]_H3.3_A3.1_F3.1_T3.2_[T9C] (ssRNA)
RNA: UUUGACAACUGAUCGUUCUUUCUGCACACUAUACAUUCUUUCUCGAUCAGUUGUCUUU
B16: Id_ii_S4_P3E.4_K3.3_C3.2_[C-2G]_H3.3_A3.1_F3.1_T3.2_[T9C]_[A10C] (ssRNA)
RNA: UUUGACAACUGAUCGUUCUUUCUGUACACUAUACCUUCUUUCUCGAUCAGUUGUCUUU
B17: Id_ii_S4_P3E.3_K3.2_C3.2_[T-1C]_H3.2_A3.1_F3.1_T3.2_[T9C]_[A10T] (ssRNA)
RNA: UUUGACAACUGAUCGUUCUUUCUCCUAUAUAUACUUUCUUUCUCGAUCAGUUGUCUUU
B18: Id_ii_S4_P3E.4_K3.3_C3.2_[C-2T]_[T-1C]_H3.3_A3.1_F3.1_T3.2_[A10T] (ssRNA)
RNA: UUUGACAACUGAUCGUUCUUUCUUCACACUAUAUUUUCUUUCUCGAUCAGUUGUCUUU
B19: Id_ii_S4_P3E.3_K3.2_C3.2_H3.2_A3.1_F3.1_T3.2_[A10T] (ssRNA)
RNA: UUUGACAACUGAUCGUUCUUUCUCUUAUAUAUAUUUUCUUUCUCGAUCAGUUGUCUUU
B20: Id_ii_S4_P3E.3_K3.2_C3.2_H3.2_A3.1_F3.1_T3.2_[T9A]_[A10C] (ssRNA)
RNA: UUUGACAACUGAUCGUUCUUUCUCUUAUAUAUAACUUCUUUCUCGAUCAGUUGUCUUU
B21: Id_ii_S4_P3E.3_K3.2_C3.2_[T-1A]_H3.2_A3.1_F3.1_T3.2_[T9G]_[A10C] (ssRNA)
RNA: UUUGACAACUGAUCGUUCUUUCUCAUAUAUAUAGCUUCUUUCUCGAUCAGUUGUCUUU
B22: Id_ii_S4_P3E.3_K3.2_C3.2_H3.2_A3.1_F3.1_T3.2_[A10G] (ssRNA)
RNA: UUUGACAACUGAUCGUUCUUUCUCUUAUAUAUAUGUUCUUUCUCGAUCAGUUGUCUUU
B23: Id_ii_S4_P3E.3_K3.2_C3.2_[T-1C]_H3.2_A3.1_F3.1_T3.2_[T9G]_[A10T] (ssRNA)
RNA: UUUGACAACUGAUCGUUCUUUCUCCUAUAUAUAGUUUCUUUCUCGAUCAGUUGUCUUU
B24: Id_ii_S4_P3E.4_K3.3_C3.2_[C-2T]_[T-1C]_H3.3_A3.1_F3.1_T3.2_[A10C] (ssRNA)
RNA: UUUGACAACUGAUCGUUCUUUCUUCACACUAUAUCUUCUUUCUCGAUCAGUUGUCUUU
B25: Id_ii_S4_P3E.4_K3.3_C3.2_[C-2G]_H3.3_A3.1_F3.1_T3.2_[A10T] (ssRNA)
RNA: UUUGACAACUGAUCGUUCUUUCUGUACACUAUAUUUUCUUUCUCGAUCAGUUGUCUUU
B26: Id_ii_S4_P3E.4_K3.3_C3.2_[C-2T]_[T-1A]_H3.3_A3.1_F3.1_T3.2_[A10C] (ssRNA)
RNA: UUUGACAACUGAUCGUUCUUUCUUAACACUAUAUCUUCUUUCUCGAUCAGUUGUCUUU
B27: Id_ii_S4_P3E.3_K3.2_C3.2_[T-1A]_H3.2_A3.1_F3.1_T3.2_[T9A] (ssRNA)
RNA: UUUGACAACUGAUCGUUCUUUCUCAUAUAUAUAAAUUCUUUCUCGAUCAGUUGUCUUU
B28: Id_ii_S4_P3E.3_K3.2_C3.2_[T-1G]_H3.2_A3.1_F3.1_T3.2_[T9C]_[A10C] (ssRNA)
RNA: UUUGACAACUGAUCGUUCUUUCUCGUAUAUAUACCUUCUUUCUCGAUCAGUUGUCUUU
B29: Id_ii_S4_P3E.3_K3.2_C3.2_H3.2_A3.1_F3.1_T3.2_[T9G]_[A10C] (ssRNA)
RNA: UUUGACAACUGAUCGUUCUUUCUCUUAUAUAUAGCUUCUUUCUCGAUCAGUUGUCUUU
B30: Id_ii_S4_P3E.3_K3.2_C3.2_[T-1C]_H3.2_A3.1_F3.1_T3.2_[T9A]_[A10C] (ssRNA)
RNA: UUUGACAACUGAUCGUUCUUUCUCCUAUAUAUAACUUCUUUCUCGAUCAGUUGUCUUU
B31: Id_ii_S4_P3E.3_K3.2_C3.2_[T-1C]_H3.2_A3.1_F3.1_T3.2_[A10G] (ssRNA)
RNA: UUUGACAACUGAUCGUUCUUUCUCCUAUAUAUAUGUUCUUUCUCGAUCAGUUGUCUUU
B32: Id_ii_S4_P3E.3_K3.2_C3.2_[T-1G]_H3.2_A3.1_F3.1_T3.2_[T9G]_[A10C] (ssRNA)
RNA: UUUGACAACUGAUCGUUCUUUCUCGUAUAUAUAGCUUCUUUCUCGAUCAGUUGUCUUU
B33: Id_ii_S4_P3E.3_K3.2_C3.2_H3.2_A3.1_F3.1_T3.2 (ssRNA)
RNA: UUUGACAACUGAUCGUUCUUUCUCUUAUAUAUAUAUUCUUUCUCGAUCAGUUGUCUUU
B34: Ib_S1_P5E.1_K5.1_C5.1_H5.1_[G2T]_A5.1_[T5G]_F5.1_T5.1 (ssRNA)
RNA: UCUCUUUUUAGUAUUAUCUCUU
B35: Ia_S1_P5E.1_K5.1_C5.1_H5.1_A5.1_[T6C]_F5.1_T5.1 (ssRNA)
RNA: UCUCUUUGUAUCAUUAUCUCUU

The target in the series is T1, PUF4 RNA-binding domain. The experiment in a line: Mg; RNA-MaP; 20 mM Na-HEPES pH 7.4, 30 mM KOAc, 0.75 mM MgCl2, 0.1% Tween-20, 5% glycerol, 0.1 mg/mL BSA, 2 mM DTT; 25 C; 0.0125-409.6 nM protein. Particulars: tags: N-His6-TEV cleaved; C-SNAP kept, Cy3B-labelled; label: tethered on chip by stalled RNA polymerase.
As for B1, the affinity, expressed as Kd, was 593 nM. With B2, the equilibrium dissociation constant (Kd) was over 2300 nM. Regarding B3, the Kd was over 2300 nM. In turn, B4 showed a dissociation constant Kd of 50.2 nM.

On to B5, for which the affinity, expressed as Kd, was 60.5 nM. This Kd and that of the molecule before are within 1.5-fold of each other.

With B6, the dissociation constant (Kd) is over 2300 nM. The molecule B7 returned a dissociation constant (Kd) of over 2300 nM.

Turning to B8, the Kd amounted to 596 nM. That is a sub-micromolar value.

As to B9, the equilibrium dissociation constant (Kd) is 0.68 nM.

The molecule B10 registered a Kd of 104 nM. B11 gave a dissociation constant Kd of 37.4 nM.

B12 yielded a Kd of 190 nM. Compared with the last molecule, the Kd is about 5.1-fold higher. B13: the dissociation constant (Kd) is 244 nM. Take B14: the Kd turned out to be 404 nM.

In turn, B15 had a dissociation constant (Kd) of 115 nM. For the molecule B16, the Kd amounted to 1.46 nM.

Take B17: the Kd was 92.9 nM.

Regarding B18, the equilibrium dissociation constant (Kd) was determined as 1430 nM.

On to B19, for which binding was characterised by a dissociation constant (Kd) of 56.4 nM.

B20 came in with a Kd of 176 nM. Molecule B21 displayed a Kd of 243 nM. Consider B22, for which binding was characterised by a dissociation constant (Kd) of 276 nM. This Kd and that of the molecule before are within 1.5-fold of each other.

For the molecule B23, the affinity, expressed as Kd, was 392 nM. In turn, B24 gave an equilibrium dissociation constant (Kd) of over 2300 nM.

In the case of B25, the dissociation constant Kd was 0.57 nM. B26 showed a dissociation constant (Kd) of 1540 nM. The result for B27 reads 842 nM; that for B28, 978 nM.

B29: the Kd came to 567 nM. The molecule B30 registered a Kd of 467 nM.

Consider B31, for which the Kd amounted to 126 nM. This Kd is about 3.7-fold lower than that of the molecule before. With B32, binding was characterised by a dissociation constant (Kd) of 194 nM. B33 gave a Kd of 68.6 nM. B34: the dissociation constant Kd is over 2300 nM. B35 showed a dissociation constant (Kd) of 6.62 nM. This counts as single-digit nanomolar.

(Values after PMC9352680, “A comprehensive thermodynamic model for RNA binding by the Saccharomyces cerevisiae Pumilio protein PUF4”.)
